Test results reported in the supplement of paper PMC9732359.
± gives the uncertainty stated by the source.

Experiment: protein stability index of a GFP-peptide fusion (yeast GPS) (PSI 1-4); higher = more stable; sorted into four equal gates, so the index is relative within each strain
In short: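 For each peptide, the protein stability index sums the read frequency in every gate after multiplying it by the gate number. Read frequencies came from plasmids that were PCR-amplified from each gate and Illumina-sequenced, with reads assigned to strains by barcodes. The gates were four equal bins of GFP/Cherry fluorescence ratio applied to mid-log yeast in leucine-free medium carrying a pooled library of tiled 17-residue yeast protein peptides fused downstream of GFP on a Cherry-expressing plasmid.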

VLIANDVDPIELVVFLP [RPL8A]
protein stability index (doa10∆): 2.42 ± 0.24 | protein stability index (pdr5∆): 2.85 ± 0.077 | protein stability index (san1∆): 3.13 ± 0.087 | protein stability index (ubr1∆): 3 ± 0.058

DEANIEIDPLTGMPISN [BRN1]
protein stability index (pdr5∆): 2.65 ± 0.25 | protein stability index (ubr1∆): 2.42 ± 0.27

KFNELVKLMKNITDYET [BRR2]
protein stability index (doa10∆): 1.11 ± 0.042 | protein stability index (pdr5∆): 1.21 ± 0.06 | protein stability index (san1∆): 1.21 ± 0.14 | protein stability index (ubr1∆): 1.3 ± 0.056

EKLLRHVDSLIEDFVDG [SRB7]
protein stability index (doa10∆): 3.2 ± 0.08 | protein stability index (pdr5∆): 3.2 ± 0.083 | protein stability index (san1∆): 3.22 ± 0.061 | protein stability index (ubr1∆): 3.24 ± 0.057

ELGEIIDEDIGNNVQEN [RMP1]
protein stability index (san1∆): 3.02 ± 0.26

KMDMICRNINRKHRNAQ [DIS3]
protein stability index (doa10∆): 2.2 ± 0.074 | protein stability index (pdr5∆): 2.5 ± 0.11 | protein stability index (san1∆): 2.37 ± 0.086 | protein stability index (ubr1∆): 3.12 ± 0.12

TYGVPGSENKRGSLDSE [NUT1]
protein stability index (doa10∆): 3.31 ± 0.095 | protein stability index (pdr5∆): 3.25 ± 0.11 | protein stability index (san1∆): 3.23 ± 0.15 | protein stability index (ubr1∆): 2.99 ± 0.074

DIVQYHLELYTSQYGTP [PRE3]
protein stability index (doa10∆): 2.1 ± 0.063 | protein stability index (pdr5∆): 1.74 ± 0.058 | protein stability index (san1∆): 1.77 ± 0.07 | protein stability index (ubr1∆): 2 ± 0.042

ENVGTRLLPINVNKKAL [MED11]
protein stability index (doa10∆): 2.87 ± 0.18 | protein stability index (pdr5∆): 2.65 ± 0.13 | protein stability index (san1∆): 2.89 ± 0.094 | protein stability index (ubr1∆): 2.98 ± 0.22

APNTLTNILISPLNTTT [YML103C/NUP188]
protein stability index (doa10∆): 2.23 ± 0.062 | protein stability index (pdr5∆): 2.13 ± 0.057 | protein stability index (san1∆): 2.03 ± 0.086 | protein stability index (ubr1∆): 1.82 ± 0.045

ALTQMDQDKVNFASGDN [RPB3]
protein stability index (doa10∆): 3.33 ± 0.14 | protein stability index (pdr5∆): 3.5 ± 0.13 | protein stability index (san1∆): 3.08 ± 0.15 | protein stability index (ubr1∆): 3.65 ± 0.28

SVKLDLQDDEDHKFPIR [BRN1]
protein stability index (doa10∆): 2.99 ± 0.18 | protein stability index (pdr5∆): 2.88 ± 0.098 | protein stability index (san1∆): 2.76 ± 0.14 | protein stability index (ubr1∆): 2.22 ± 0.17

IGTANYKPLIEERMGQI [SMC4]
protein stability index (doa10∆): 3.1 ± 0.087 | protein stability index (pdr5∆): 3.53 ± 0.087 | protein stability index (san1∆): 3.37 ± 0.059 | protein stability index (ubr1∆): 3.27 ± 0.063

IRNARSIRAEAVAASST [POP1]
protein stability index (doa10∆): 3.13 ± 0.24 | protein stability index (pdr5∆): 2.54 ± 0.23 | protein stability index (san1∆): 2.5 ± 0.14 | protein stability index (ubr1∆): 2.19 ± 0.1

NTTKPAFGGLNFGGGNN [YJL041W/NSP1]
protein stability index (doa10∆): 2.71 ± 0.054 | protein stability index (pdr5∆): 3.2 ± 0.061 | protein stability index (san1∆): 3.01 ± 0.045 | protein stability index (ubr1∆): 3.13 ± 0.068

TEKLSNGFSFTKFNHNK [YOR098C/NUP1]
protein stability index (doa10∆): 3.02 ± 0.089 | protein stability index (pdr5∆): 3.14 ± 0.064 | protein stability index (san1∆): 3.02 ± 0.037 | protein stability index (ubr1∆): 2.94 ± 0.063

LNELETLIKKKQDEKKS [SMC2]
protein stability index (doa10∆): 3.24 ± 0.087 | protein stability index (pdr5∆): 3.27 ± 0.092 | protein stability index (san1∆): 3.19 ± 0.063 | protein stability index (ubr1∆): 2.91 ± 0.055

KNLNPASSSPSSTDFST [ECM29]
protein stability index (doa10∆): 3.11 ± 0.049 | protein stability index (pdr5∆): 2.81 ± 0.045 | protein stability index (san1∆): 2.97 ± 0.056 | protein stability index (ubr1∆): 2.91 ± 0.032

DDKYGRKFALEKLYIFY [SRP72]
protein stability index (doa10∆): 2.71 ± 0.076 | protein stability index (pdr5∆): 2.82 ± 0.081 | protein stability index (san1∆): 2.4 ± 0.061 | protein stability index (ubr1∆): 2.4 ± 0.055

LLEQDTSTEKLYKLNDK [PRE9]
protein stability index (doa10∆): 2.99 ± 0.062 | protein stability index (pdr5∆): 3.08 ± 0.07 | protein stability index (san1∆): 2.91 ± 0.058 | protein stability index (ubr1∆): 2.91 ± 0.056

ESAVKYALAAKDRFDID [RPN2]
protein stability index (doa10∆): 3.54 ± 0.27 | protein stability index (pdr5∆): 3.09 ± 0.29 | protein stability index (san1∆): 2.87 ± 0.22 | protein stability index (ubr1∆): 3.45 ± 0.1

QPSDVKPTSHKQLQQPK [SIR4]
protein stability index (doa10∆): 2.98 ± 0.096 | protein stability index (pdr5∆): 3.15 ± 0.088 | protein stability index (san1∆): 2.99 ± 0.084 | protein stability index (ubr1∆): 3.06 ± 0.076

IKEKVQFNATINPESRE [ITC1]
protein stability index (doa10∆): 1.67 ± 0.046 | protein stability index (pdr5∆): 1.6 ± 0.044 | protein stability index (san1∆): 1.97 ± 0.073 | protein stability index (ubr1∆): 2.07 ± 0.037

INELTLLVQKRFKYAPG [RPS3]
protein stability index (doa10∆): 2.83 ± 0.2 | protein stability index (pdr5∆): 2.81 ± 0.14 | protein stability index (san1∆): 2.75 ± 0.12 | protein stability index (ubr1∆): 2.96 ± 0.13

GCYFEEKRYDDKLLDFI [CSN12]
protein stability index (doa10∆): 3.34 ± 0.06 | protein stability index (pdr5∆): 2.92 ± 0.098 | protein stability index (san1∆): 3.04 ± 0.066 | protein stability index (ubr1∆): 3.04 ± 0.077

QGSMSERPPYILNSYGV [SIR2]
protein stability index (doa10∆): 2.73 ± 0.072 | protein stability index (pdr5∆): 3.03 ± 0.084 | protein stability index (san1∆): 3 ± 0.066 | protein stability index (ubr1∆): 2.87 ± 0.045

GSPKSATSKTSEMLAKY [CDC53]
protein stability index (doa10∆): 2.67 ± 0.075 | protein stability index (pdr5∆): 2.48 ± 0.072 | protein stability index (san1∆): 1.83 ± 0.1 | protein stability index (ubr1∆): 3 ± 0.045

ALNDVYLDADVAKLANW [YML031W/NDC1]
protein stability index (doa10∆): 2.85 ± 0.2 | protein stability index (pdr5∆): 3.52 ± 0.22 | protein stability index (san1∆): 3.67 ± 0.22 | protein stability index (ubr1∆): 3.73 ± 0.24

AGVLNGTLEYGTCFGGS [RET1]
protein stability index (doa10∆): 2.97 ± 0.051 | protein stability index (pdr5∆): 2.91 ± 0.057 | protein stability index (san1∆): 2.99 ± 0.051 | protein stability index (ubr1∆): 3.08 ± 0.043

NKDLSELVIRLEKDAAD [YIL149C/MLP2]
protein stability index (doa10∆): 3.05 ± 0.078 | protein stability index (pdr5∆): 3.15 ± 0.084 | protein stability index (san1∆): 3.2 ± 0.061 | protein stability index (ubr1∆): 3.15 ± 0.069

LMISPKDEETTEKARLI [RRI2]
protein stability index (doa10∆): 2.8 ± 0.15 | protein stability index (pdr5∆): 3.27 ± 0.18 | protein stability index (ubr1∆): 3.04 ± 0.14

APIGKHYVVLDTNVVLQ [DIS3]
protein stability index (doa10∆): 2.93 ± 0.13 | protein stability index (pdr5∆): 2.81 ± 0.14 | protein stability index (san1∆): 2.04 ± 0.16 | protein stability index (ubr1∆): 2.31 ± 0.12

FKYRKARLEPGTAIGAI [RPO31]
protein stability index (doa10∆): 2.73 ± 0.16 | protein stability index (pdr5∆): 1.99 ± 0.092 | protein stability index (san1∆): 2.17 ± 0.1 | protein stability index (ubr1∆): 2.33 ± 0.057

MSGLPPPPPGFEEDSDL [PRP8]
protein stability index (doa10∆): 3.19 ± 0.11 | protein stability index (pdr5∆): 3.37 ± 0.083 | protein stability index (san1∆): 3.13 ± 0.075 | protein stability index (ubr1∆): 3.31 ± 0.078

DNGLGPLKYAPHLPFSK [SWI3]
protein stability index (doa10∆): 3.13 ± 0.058 | protein stability index (pdr5∆): 3.22 ± 0.069 | protein stability index (san1∆): 2.85 ± 0.07 | protein stability index (ubr1∆): 3.21 ± 0.058

VEGPKFTIDAKPPISDS [YLR335W/NUP2]
protein stability index (doa10∆): 3.31 ± 0.048 | protein stability index (pdr5∆): 3.47 ± 0.058 | protein stability index (san1∆): 3.29 ± 0.048 | protein stability index (ubr1∆): 3.36 ± 0.046

AHRNGIKKPKTYKYPSL [RPL29]
protein stability index (doa10∆): 3.42 ± 0.11 | protein stability index (pdr5∆): 2.96 ± 0.15 | protein stability index (san1∆): 3.19 ± 0.28 | protein stability index (ubr1∆): 2.95 ± 0.1

MLGEDEGNTVLEKGNNP [SWP82]
protein stability index (doa10∆): 3.67 ± 0.13 | protein stability index (pdr5∆): 3.22 ± 0.19 | protein stability index (san1∆): 3.11 ± 0.099 | protein stability index (ubr1∆): 3.69 ± 0.16

VLAHRIGLVPLKVDPDM [RPC40]
protein stability index (doa10∆): 2.94 ± 0.27

KVVNFWLLHNGFSTGIG [RPO21]
protein stability index (doa10∆): 3.17 ± 0.16 | protein stability index (pdr5∆): 2.25 ± 0.1 | protein stability index (san1∆): 2.51 ± 0.13 | protein stability index (ubr1∆): 1.37 ± 0.094

HKQIHTTIFVKSTTPYV [POP7]
protein stability index (doa10∆): 2.15 ± 0.045 | protein stability index (pdr5∆): 2.31 ± 0.05 | protein stability index (san1∆): 2.15 ± 0.062 | protein stability index (ubr1∆): 1.82 ± 0.03

MSVKPIDNYITNSVRLF [SRP21]
protein stability index (doa10∆): 1.94 ± 0.076 | protein stability index (pdr5∆): 1.91 ± 0.06 | protein stability index (san1∆): 1.56 ± 0.068 | protein stability index (ubr1∆): 1.63 ± 0.079

CTFSMEPYHFISNYNTK [SRB8]
protein stability index (doa10∆): 1.99 ± 0.083 | protein stability index (pdr5∆): 2.09 ± 0.05 | protein stability index (san1∆): 1.5 ± 0.079 | protein stability index (ubr1∆): 1.71 ± 0.052

KEIKTNEYVIKTPVFTT [YMR129W/POM152]
protein stability index (doa10∆): 2.1 ± 0.072 | protein stability index (pdr5∆): 1.98 ± 0.056 | protein stability index (san1∆): 1.88 ± 0.084 | protein stability index (ubr1∆): 1.94 ± 0.042

MVHLYSIVEECDARFDE [RPC17]
protein stability index (doa10∆): 3.04 ± 0.12 | protein stability index (pdr5∆): 2.94 ± 0.078 | protein stability index (san1∆): 3.01 ± 0.099 | protein stability index (ubr1∆): 2.74 ± 0.18

KVIEQPITSETAMKKVE [RPL25]
protein stability index (doa10∆): 3.02 ± 0.092 | protein stability index (pdr5∆): 2.94 ± 0.066 | protein stability index (san1∆): 2.88 ± 0.066 | protein stability index (ubr1∆): 2.93 ± 0.074

DRFKPNLDIAKDLIRTD [MED4]
protein stability index (doa10∆): 3.38 ± 0.19 | protein stability index (pdr5∆): 3.34 ± 0.19 | protein stability index (san1∆): 2.82 ± 0.11 | protein stability index (ubr1∆): 2.96 ± 0.14

LQFKSIREIDVAGGKKA [RPS7A]
protein stability index (doa10∆): 1.45 ± 0.14 | protein stability index (pdr5∆): 1.49 ± 0.11 | protein stability index (ubr1∆): 1.21 ± 0.077

LYDHWDKYHEQWIKFLL [SSN8]
protein stability index (doa10∆): 3.16 ± 0.2 | protein stability index (pdr5∆): 3.1 ± 0.13 | protein stability index (san1∆): 2.84 ± 0.071 | protein stability index (ubr1∆): 2.72 ± 0.054

QKSVSLLSSESNIPTLI [YDL116W/NUP84]
protein stability index (doa10∆): 2.73 ± 0.056 | protein stability index (pdr5∆): 2.69 ± 0.065 | protein stability index (san1∆): 2.8 ± 0.039 | protein stability index (ubr1∆): 2.67 ± 0.05

FKSTESNISDEKSRISE [YMR129W/POM152]
protein stability index (doa10∆): 3.3 ± 0.2 | protein stability index (pdr5∆): 3.01 ± 0.16 | protein stability index (san1∆): 2.78 ± 0.12 | protein stability index (ubr1∆): 3.05 ± 0.17

IYFTVPNEFEIQLSTVN [RGR1]
protein stability index (doa10∆): 2.21 ± 0.064 | protein stability index (pdr5∆): 2.22 ± 0.058 | protein stability index (san1∆): 1.88 ± 0.061 | protein stability index (ubr1∆): 2.2 ± 0.042
